Drawing on patent publication US20260193342A1 (ZOETIS SERVICES, published 2026), this text covers Kd and IC50 (cell based potency assay) for 1 molecule.

For assay [1], the target named is IL-31 (target protein of mAb1). The assay can be described thus: SPR (Biacore T200), target amine-coupled to CM5, antibody flowed, 15 C, 1:1 model. A general note: Surface plasmon resonance follows binding to a sensor surface in real time, without labels.
Assay [2] deals with IL-31 (target protein of mAb1). As to the kind of experiment: cell-based or functional assay.
In assay [3] the target is T1, canine FcRn complex (FcRn-α subunit and β-microglobulin) (canine, UniProt A0A8I3PFR8 25-347, biotin on the BAP tag by BirA (Example 5 only)). As to the kind of experiment: SPR (Biacore), FcRn amine-coupled to CM5, IgG flowed, pH 6, 15 C.
Assay [4] has as its target T1, canine FcRn complex (FcRn-α subunit and …). The assay can be described thus: SPR (Biacore), FcRn amine-coupled to CM5, IgG flowed, pH 7.2, 15 C.
The target is the same in assay [5]. As to the kind of experiment: SPR (Biacore), biotinylated FcRn on SA chip, IgG flowed, pH 6, 15 C.

T1 sequence (A0A8I3PFR8 entry or part of it, one chain of several): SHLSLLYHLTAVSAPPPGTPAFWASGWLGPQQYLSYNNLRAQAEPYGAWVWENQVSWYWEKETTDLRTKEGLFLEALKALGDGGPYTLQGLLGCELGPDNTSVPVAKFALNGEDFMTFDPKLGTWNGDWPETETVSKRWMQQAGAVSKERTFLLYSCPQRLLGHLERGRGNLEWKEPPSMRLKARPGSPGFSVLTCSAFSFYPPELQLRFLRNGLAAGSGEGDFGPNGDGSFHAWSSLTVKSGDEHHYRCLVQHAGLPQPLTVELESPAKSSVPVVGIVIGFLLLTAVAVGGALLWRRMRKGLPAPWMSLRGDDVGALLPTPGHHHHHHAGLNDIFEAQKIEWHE

B1: mAb1, caninized anti-IL31 antibody 34D03, canine IgGB (65), N434H (antibody)
heavy: EVQLVESGGDLVKPGGSLRLSCVASGFTFSNYGMSWVRQAPGKGLQWVATISYGGSYTYYPDNIKGRFTISRDNAKNTLYLQMNSLRAEDTAMYYCVRGYGYDTMDYWGQGTLVTVSSASTTAPSVFPLAPSCGSTSGSTVALACLVSGYFPEPVTVSWNSGSLTSGVHTFPSVLQSSGLYSLSSMVTVPSSRWPSETFTCNVAHPASKTKVDKPVPKRENGRVPRPPDCPKCPAPEMLGGPSVFIFPPKPKDTLLIARTPEVTCVVVDLDPEDPEVQISWFVDGKQMQTAKTQPREEQFNGTYRVVSVLPIGHQDWLKGKQFTCKVNNKALPSPIERTISKARGQAHQPSVYVLPPSREELSKNTVSLTCLIKDFFPPDIDVEWQSNGQQEPESKYRTTPPQLDEDGSYFLYSKLSVDKSRWQRGDTFICAVMHEALHHHYTQESLSHSPGK
VL: EIVMTQSPASLSLSQEEKVTITCKASQSVSFAGTGLMHWYQQKPGQAPKLLIYRASNLEAGVPSRFSGSGSGTDFSFTISSLEPEDVAVYYCQQSREYPWTFGQGTKLEIK
notes: VH/VL: the caninized 34D03 entries of the listing; also called mAb1 N434H; mAb1 N434H Mutant
With B1, the Kd in assay [1] is 0.373 nM; in assay [3] it was 0.7 to 1.3 nM; in assay [4] it was 5 µM; in assay [5] it was 6.45 nM. In assay [2], this molecule showed an IC50 (cell based potency assay) of 0.99 nM.

Broadly, the Kd is the constant that tells how readily two partners part at equilibrium. Read a high Kd as lower affinity.
